How the values were obtained:
RET = settings: cited from earlier work; for RET autophosphorylation: Tokugawa et al. 2003 (XIB4035, GDNF), Akeno-Stuart et al. 2007 (AST 487)
[1] = test system: neurosphere-derived glial cells; assay: Activation of neurosphere-derived glial cells, alone or co-cultured with ILC3; assay type: cell-based, mice; settings: for innate Il22 in ILC3 co-cultured with glial cells: 24 hours of co-culture, MYD88 dependent; for GFL expression in glial cells: activation of neurosphere-derived glial cells
Method: Neurosphere-derived glial cells were obtained as previously described^60. Briefly, total intestines from E14.5 C57BL/6J and Myd88^−/− mice were digested with collagenase D (0.5 mg/mL; Roche) and DNase I (0.1 mg/mL; Roche) in DMEM/F-12, GlutaMAX, supplemented with 1% hepes, streptomycin/penicillin and 0.1% β-mercaptoethanol (Gibco) for approximately 30 minutes at 37° C. under gentle agitation. Cells were cultured during 1 week in a CO2 incubator at 37° C. in DMEM/F-12, GlutaMAX™, streptomycin and penicillin and 0.1% P3-mercaptoethanol (Gibco) supplemented with B27 (Gibco), EGF (Gibco) and FGF2 (Gibco) 20 ng/mL. After 1 week of culture cells were treated with 0.05% trypsin (Gibco), transferred into PDL (Sigma-Aldrich) coated plates and culture in DMEM supplemented with 10% FBS, 1% hepes, glutamine, streptomycin and penicillin and 0.1% β-mercaptoethanol (Gibco) until confluence. Glial cells were activated with TLR2 (5 μg/ml) (Pam3CSK4), TLR3 ([…]) (PolyI:C), TLR4 (50 ng/ml) (LPS), TLR9 ([…]) (DsDNA-EC) ligands from Invivogen and IL-1β (10 ng/mL) (401ML005), IL-18 (50 ng/mL) (B002-5), IL-33 (0.1 ng/mL) (3626ML) recombinant proteins from R&D Systems. Cells were also co-cultured with purified ILC3 from WT and Illb deficient mice. IL-22 expression in glial-ILC3 co-cultures upon TLR4 activation was also performed using GDNF ([…]) (AB-212-NA), NRTN ([…]) (AF-387sp) and ARTN (0.3 μg/mL) (AF-1085-sp) blocking antibodies. Cells were analysed after 24 hours of co-culture.

CCN1CCN(Cc2ccc(NC(=O)Nc3ccc(Oc4cc(NC)ncn4)cc3)cc2C(F)(F)F)CC1 [AST 487, 1-[4-[(4-ethylpiperazin-1-yl)methyl]-3-(trifluoromethyl)phenyl]-3-[4-[6-(methylamino)pyrimidin-4-yl]oxyphenyl]urea]
activation of downstream effectors of RET (RET; Akeno-Stuart et al. 2007): inhibit | RET autophosphorylation (RET): inhibit

CCN(CC)CCCC(C)Nc1cc(/C=C/c2ccccc2Cl)nc2cc(Cl)ccc12 (centres unmarked) [XIB4035, N(4)-(7-chloro-2-[(E)-2-(2-chloro-phenyl)-vinyl]-quinolin-4-yl)-N(1),N(1)-diethyl-pentane-1,4-diamine]
RET autophosphorylation (RET): induced

B1: IL-33: recombinant protein from R&D Systems (3626ML), alarmin (protein, UniProt Q8BVZ5 1-266, looked up)
Interleukin-33: MRPRMKYSNSKISPAKFSSTAGEALVPPCKIRRSQQKTKEFCHVYCMRLRSGLTIRKETSYFRKEPTKRYSLKSGTKHEENFSAYPRDSRKRSLLGSIQAFAASVDTLSIQGTSLLTQSPASLSTYNDQSVSFVLENGCYVINVDDSGKDQEQDQVLLRYYESPCPASQSGDGVDGKKLMVNMSPIKDTDIWLHANDKDYSVELQRGDVSPPEQAFFVLHKKSSDFVSFECKNLPGTYIGVKDNQLALVEEKDESCNNIMFKLSKI
innate Il22 in ILC3 co-cultured with glial cells [1]: induced robust | GFL expression in glial cells [1]: efficiently controlled

B2: GDNF: Glial cell-derived neurotrophic factor, a GFRα1 ligand (protein, UniProt P39905 78-211, looked up)
Glial cell line-derived …: SPDKQMAVLPRRERNRQAAAANPENSRGKGRRGQRGKNRGCVLTAIHLNVTDLGLGYETKEELIFRYCSGSCDAAETTYDKILKNLSRNRRLVSDKVGQACCRPIAFDDDLSFLDDNLVYHILRKHSAKRCGCI
RET autophosphorylation (RET): induced

B3: IL-1β: recombinant protein from R&D Systems (401ML005), alarmin (protein, UniProt P10749 118-269, looked up)
Interleukin-1 beta: VPIRQLHYRLRDEQQKSLVLSDPYELKALHLNGQNINQQVIFSMSFVQGEPSNDKIPVALGLKGKNLYLSCVMKDGTPTLQLESVDPKQYPKKKMEKRFVFNKIEVKSKVEFESAEFPNWYISTSQAEHKPVFLGNNSGQDIIDFTMESVSS
innate Il22 in ILC3 co-cultured with glial cells [1]: induced robust | GFL expression in glial cells [1]: efficiently controlled
